Substitutions are numbered along the chain they refer to.
B1: MSLN46 VHH-Fc fusion protein (Fc fusion)
chain: QVQLQESGGGLVQAGGSLRLSCEASGHTDSYYPKAWFRQAPGKEREFVASIGWGGRMTAYADSVKGRFTVSRTYAKNTVYLQMNSLKPEDTAVYYCAAGIGWAPTADSGEYDYWGQGTQVTVSS
notes: Tested as bivalent VHH-Fc expressed in EXPI293; also called MSLN-VHH; MSLN nanobody 46; not shown: Fc of the VHH-Fc fusion
B2: MSLN52 VHH-Fc fusion protein (Fc fusion)
chain: B1 chain with R19S, E23A
notes: Tested as bivalent VHH-Fc expressed in EXPI293; also called MSLN-VHH; MSLN nanobody 52; not shown: Fc of the VHH-Fc fusion
B3: MSLN53 VHH-Fc fusion protein (Fc fusion)
chain: B1 chain with A14P, R19T
notes: Tested as bivalent VHH-Fc expressed in EXPI293; also called MLSN-53; MSLN-VHH; not shown: Fc of the VHH-Fc fusion
B4: MSLN50 VHH-Fc fusion protein (Fc fusion)
chain: QVQLQESGGGLVQPGGSLRLSCAASGSISKIAIMGWYRQPPGNERELIAIANMTGTGVYRDTVKGRFTIRRDNAKNMVYLQMNNLKSEDTGVYYCHARQLGVGSFESWGQGTQVTVSS
notes: Tested as bivalent VHH-Fc expressed in EXPI293; also called MSLN-VHH; MSLN nanobody 50; not shown: Fc of the VHH-Fc fusion
B5: MSLN48 VHH-Fc fusion protein (Fc fusion)
chain: QVQLQESGGGLVQPGGSLRLSCAASESIFSNYSASWYRQAPGKQRELVATIARTGSAFHLGSVKGRFTISRDNAKRTVYLQMNSLLPEDTAVYYCNVWDSWGQGTQVTVSS
notes: Tested as bivalent VHH-Fc expressed in EXPI293; also called MSLN-VHH; MSLN nanobody 48; not shown: Fc of the VHH-Fc fusion
B6: MSLN45 VHH-Fc fusion protein (Fc fusion)
chain: QVQLQESGGGLVQPGGSLRLSCAASGSIFSINAMGWYRQPPGKQRELVAATSWGGRTNYADSVEGRFTISRDNAKNTVYLQMNSLKPEDTAVYYCKLWDGSSWDIYWGQGTQVTVSS
notes: Tested as bivalent VHH-Fc expressed in EXPI293 and detected with anti-human IgG Fc; also called MSLN-VHH; MSLN nanobody 45; not shown: Fc of the VHH-Fc fusion
B7: MSLN51 VHH-Fc fusion protein (Fc fusion)
chain: B6 chain with P14T
notes: Tested as bivalent VHH-Fc expressed in EXPI293; also called MSLN-VHH; MSLN nanobody 51; not shown: Fc of the VHH-Fc fusion
B8: MSLN57 VHH-Fc fusion protein (Fc fusion)
chain: B6 chain with L11M
notes: Tested as bivalent VHH-Fc expressed in EXPI293; also called MSLN-VHH; MSLN nanobody 57; not shown: Fc of the VHH-Fc fusion
B9: MSLN47 VHH-Fc fusion protein (Fc fusion)
chain: B6 chain with P14A
notes: Tested as bivalent VHH-Fc expressed in EXPI293; also called MSLN-VHH; MSLN nanobody 47; not shown: Fc of the VHH-Fc fusion
B10: MSLN59 VHH-Fc fusion protein (Fc fusion)
chain: B6 chain with A23T, G26K, S27R, F29D
notes: Tested as bivalent VHH-Fc expressed in EXPI293; also called MSLN-VHH; MSLN nanobody 59; not shown: Fc of the VHH-Fc fusion
B11: MSLN55 VHH-Fc fusion protein (Fc fusion)
chain: B6 chain with P14S, R19K, S27N, F29A
notes: Tested as bivalent VHH-Fc expressed in EXPI293; also called MSLN-VHH; MSLN nanobody 55; not shown: Fc of the VHH-Fc fusion
B12: MSLN58 VHH-Fc fusion protein (Fc fusion)
chain: B6 chain with L11T, A23E, S25V, S27D, I28S, F29V
notes: Tested as bivalent VHH-Fc expressed in EXPI293; also called MSLN-VHH; MSLN nanobody 58; not shown: Fc of the VHH-Fc fusion
B13: positive control antibody P4 (antibody, V domains shown)
VH: QVQLQQSGPGLVTPSQTLSLTCAISGDSVSSNSATWNWIRQSPSRGLEWLGRTYYRSKWYNDYAVSVKSRMSINPDTSKNQFSLQLNSVTPEDTAVYYCARGMMTYYYGMDVWGQGTTVTVSS
VL: QPVLTQSSSLSASPGASASLTCTLRSGINVGPYRIYWYQQKPGSPPQYLLNYKSDSDKQQGSGVPSRFSGSKDASANAGVLLISGLRSEDEADYYCMIWHSSAAVFGGGTQLTVLS
notes: an AHC probe was used in the ForteBio assay; also called positive antibody P4

The binders below were run against T1, Human MSLN-His antigen (human, UniProt Q13421 296-580, limits assumed) (assay: BLI (ForteBio), AHC probe, nanobody at 100 nM, human MSLN-His 2-fold diluted from 100 nM).
T1 construct: also called MSLN-his protein; human MSLN protein; not shown: His tag
T1 sequence (Q13421 other isoform, or with tags, fused parts or gaps limits assumed): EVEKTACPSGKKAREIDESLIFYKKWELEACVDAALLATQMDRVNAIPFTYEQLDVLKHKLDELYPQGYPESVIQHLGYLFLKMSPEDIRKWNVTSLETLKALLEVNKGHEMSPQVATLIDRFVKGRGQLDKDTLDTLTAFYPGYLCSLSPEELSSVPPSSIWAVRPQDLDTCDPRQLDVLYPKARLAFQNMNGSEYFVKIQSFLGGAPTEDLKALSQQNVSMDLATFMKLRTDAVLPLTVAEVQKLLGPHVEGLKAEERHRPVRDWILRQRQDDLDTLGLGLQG
Method: MSLN nanobodies with flow cytometric binding activity were diluted to 100 nM and added into a 384-well plate. Human MSLN-His antigens were 2-fold diluted to 100 nM for a total of 7 gradients, and added into a 384-well plate. An AHC probe (Sartorius, Item No. 18-5060) was used, with the binding time set to 180 sec, the dissociation time to 360 sec, the baseline to 60 sec, and the regeneration cycle to three times, each for 5 sec. After then, the binding-dissociation curve was fitted using software to calculate the affinity of the antibodies.

| Binder | Kd [pM] |
| --- | --- |
| B1 | 2150 |
| B2 | 2580 |
| B3 | 1410 |

The binders below were run against T1, Human MSLN-His antigen (assay: ELISA, plate coated with 2 ug/ml MSLN-His, VHH-Fc diluted 2.5-fold from 200 nM, anti-human IgG Fc HRP, OD450).
Method: (§1) A high-absorption 384-well plate was coated with 2 μg/ml of MSLN-His […], and left standing at 4° C. overnight. The plate was washed three times with 1×PBST, and blocked with 5% of skimmed milk at room temperature for 2 h. During the blocking, the antibody MSLN-VHH was diluted 2.5-fold starting from a concentration of 200 nM for a total of 11 gradients. At the end of blocking, the plate was washed three times with 1×PT, into which were added corresponding diluted primary antibodies at 30 μl/well and incubated with shaking at room temperature for 1 h. The plate was washed three times with 1×PBST, into which were then added secondary antibodies Anti-human IgG Fc Antibody HRP (abcam, Item No. ab99759) and incubated at room temperature for 30-60 min. The plate was washed seven times with 1×PBST, into which was then added a TMB developer, and 2M phosphoric acid was added 3-5 min later to stop the reaction. The absorbance was read at a wavelength of 450 nm.

| Binder | EC50 (read off the curve) [pM] |
| --- | --- |
| B4 | ~10000 |
| B5 | ~7000 |
| B1 | ~1000 |
| B2 | ~1000 |
| B3 | ~800 |
| B6 | ~700 |
| B7 | ~800 |
| B8 | ~600 |
| B9 | ~800 |
| B10 | ~500 |
| B11 | ~500 |
| B12 | ~400 |

The binders below were run against T1, Human MSLN-His antigen (assay: ELISA, plate coated with 2 ug/ml MSLN-His, antibody diluted 2.5-fold from 200 nM, anti-human IgG Fc HRP, OD450).
Method: as §1

| Binder | EC50 (read off the curve) [pM] |
| --- | --- |
| B13 | ~800 |

From patent US20260224618A1 (ORICELL THERAPEUTICS, published 2026)
